Publication PMC6778226 (Proceedings of the National Academy of Sciences of the …, 2019)
Read-outs that look alike come from different tables or passages of the source.

How the values were obtained:
[1] = target: T1, voltage-dependent anion channel 1 (human, UniProt P21796 1-283, amine reactive RED-NHS NT-647 dye (for MST)); assay: MST
[2] = target: T1, voltage-dependent anion channel 1; assay: MST; remark: listed apart in the source

T1 sequence (P21796 whole entry): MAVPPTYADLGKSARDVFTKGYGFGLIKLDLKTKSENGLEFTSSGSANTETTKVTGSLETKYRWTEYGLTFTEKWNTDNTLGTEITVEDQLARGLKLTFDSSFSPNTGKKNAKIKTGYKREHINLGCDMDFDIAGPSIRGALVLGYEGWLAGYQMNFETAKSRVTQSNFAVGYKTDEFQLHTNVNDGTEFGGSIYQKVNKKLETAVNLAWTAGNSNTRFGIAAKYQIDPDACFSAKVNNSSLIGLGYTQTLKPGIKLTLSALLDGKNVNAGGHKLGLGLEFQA

Kd [1]: 76 ± 2 nM
Kd [2]: 210 ± 15 nM
B1: mitoNEET (natural protein, human)
chain: RFYVKDHRNKAMINLHIQKDNPKIVHAFDMEDLGDKAVYCRCWRSKKFPFCDGAHTKHNEETGDNVGPLIIKKKET
